Test results: patent US5234903A, “Chemically modified hemoglobin as an effective, stable non-immunogenic red blood cell substitute” (Enzon, Inc., priority 1990, dated 1993)
Several values for one entry are separate records, joined by “and”; a condition that tells them apart may be missing. Equal values may be shown once. Read-outs that look alike come from different tables or passages of the source.

Tests used:
[1] = Free iron by ferrozine assay; format: physicochemical; conditions: in preparation
Text: The P50 of the above PEG-bHb was 29mm Hg (Table IV). […] Half-life of this example injected into rats after a 70 percent exchange transfusion was approximately nine hours (Table IV).

rats = assay: Blood pressure, heart rate and breathing in rats after 70 percent exchange transfusion; format: in vivo; conditions: 70% exchange transfusion
Text: Acute toxicity studies may be performed in any suitable experimental animal. Preferably, a range of exposures may be tested; for example, by evaluating animals that have received a 50 or 70 percent exchange transfusion as compared to animals that have received a 100 percent exchange transfusion. Vital signs and visual observations should be recorded, and the animals may be sacrificed after a period of time estimated to correspond to one half-life of the hemoglobin formulation being tested. Histological evaluation using standard techniques may be used to determine the presence or absence of toxic effects on tissues including lung, kidney, liver, or brain.
The results of in vivo studies, in which rats were given a 70 percent exchange transfusion of hemoglobin prepared according to Examples I-V or control (native bovine hemoglobin) are shown in Table V (bracketed numbers are values obtained in rats that were not transfused). Note that the breathing rate decreased slightly, and the blood pressure increased by at most about 30-35 percent relative to control, showing a good physiologic response to the exchange transfusion.

[2] = Methemoglobin content of PEG-Hb preparations; format: physicochemical; conditions: in preparation
Text: (§1) The polyalkylene oxide modified hemoglobin may then be chemically characterized using methods known in the art. For example, the oxygen dissociation curve may be determined using standard techniques (for example, Imai et al., 1970, Biochim. Biophys. Acta 200: 189-196) allowing calculation of the P50 value. Additional parameters which would be desirable to measure include the methemoglobin content, the viscosity, the osmolality, the pH, and the Hill constant; the effects of changes in pH on the oxygen saturation curve may be determined as described in Bartels (1971, Blood oxygen dissociation curves: Mammals. in "Respiration and Circulation", Altman and Dittmer, Eds., Federation of American Societies for Experimental Biology, Bethesda).

[3] = Oxygen binding: P50 (partial pressure of oxygen at 50% saturation) and Hill coefficient; conditions: Examples I-V and control
Experimental: Hemoglobin constitutes about 90% of the total protein in red blood cells. 100 ml of whole blood is capable of absorbing approximately 21 ml of gaseous oxygen due to the binding ability of hemoglobin. Equally important to the binding of oxygen, hemoglobin is also efficient in releasing the bound oxygen to tissues. The ability of hemoglobin to bind and release oxygen is often quantitatively expressed as the P50, the partial pressure of oxygen which results in fifty percent saturation of hemoglobin.
The resulting modified hemoglobin may then be tested to determine its P50 value so as to confirm that a clinically useful P50 has been achieved. Methods of P50 measurement include standard methods of analysis, such as, for example, methods utilizing the Hemox-Analyzer (TCS Medical Products Co., Huntingdon Valley, Pa.).
Following reduction, the hemoglobin may be reacted with an activated polyalkylene oxide under conditions which maintain the structural integrity of the oxygen binding site. In preferred embodiments of the invention, such conditions consist of a high anion concentration; in a specific embodiment this anion is chloride ion. In preferred embodiments, the chloride ion concentration is at least about 1.0M. […] According to the invention, the activated polyalkylene oxide may have one or more than one functional groups. The degree of modification for each preparation referred to in Table I is approximately 20 percent. This percent modification corresponds to about […] PEG molecules per each molecule of hemoglobin. The percent modification may be calculated according to the number of lysines modified by PEG and is based on a total of 48 surface lysines in bovine hemoglobin. The number may be determined by trinitrobenzene sulfonic acid (TNBS) assay (Habeef et al., 1966, Analyt. Biochem. 14:328-336).
as §1
Purification was carried out using a hollow-fiber ultrafiltration device with M.W. cutoff of 50 kD that is commercially available from American Fluid, Richboro, Pa. The advantage of this device relative to conventional tangential flat ultrafiltration membranes is its easy handling of viscous protein solutions such as the 6% PEG-Hb solution. Following purification, the P50 of the PEG-Hb was determined by a Hemox-Analyzer (TCS Medical Products Co., Huntington Valley, Pa.).

[4] = Viscosity and colloid osmotic pressure of PEG-Hb solutions; format: physicochemical
Text: as §1

[5] = Half-life and intravascular Met-Hb in rats after 70 percent exchange transfusion; format: in vivo; conditions: rats; for Half-life / Met-Hb at Half-life: 70% exchange transfusion
Text: Blood circulating time of polyalkylene oxide-modified Hb may, for example, and not by way of limitation, be evaluated by monitoring the concentration of hemoglobin in the plasma fraction (at 540 nm) of blood samples sequentially collected following exchange transfusion with modified Hb. Hemoglobin disappearance may be plotted as a function of time.

[6] = in words; cited from earlier work
[7] = in vivo; cited from earlier work

Substance | Endotoxin (Endotoxin (LAL test)) | Free Iron [1] [µg/dL] | Breathing (rats) [min⁻¹] | Heart Rate (rats) [min⁻¹] | Mean Arterial Press. (rats) [mmHg] | MetHb [2] [%] | Hill coeff. [3] | Osmotic Press. [4] [mmHg] | Viscosity [4] [cp] | Half-life [5] | Met-Hb at Half-life [5] [%] | p50 [3] [mmHg] | endotoxins (Endotoxin (LAL test); LAL test, in words) | colloid osmolality [4] [mm Hg] | intravascular Met-bHb formation ([5]; 70 percent exchange transfusion) [%] | P50 / oxygen binding of stroma-free hemoglobin [6] | transfusion half-life [7] | Half-life [7]
CONTROL: control (native bovine hemoglobin) [reference compound] | < .1 EU | 24 | 100 | 304 | 90 | < 5 | 2.4 | 22 | 3.0 | 1.5 h | 16.5 | – | – | – | – | – | – | –
Example II: bovine hemoglobin deoxygenated through gas permeable membrane, conjugated to SC-PEG (5000) | < .1 EU | 27 | 104 | 408 | 119 | < 5 | 2.2 | 22 | 4.5 | 9.6 h | 5.8 | 24 | – | – | – | – | – | –
Example III: bovine hemoglobin conjugated with SC-PEG (MW 3000) at a molar ratio of 30:1 | < .1 EU | 20 | 79 | 408 | 132 | < 5 | 2.05 | 22 | 3.8 | 12.4 h | 13.8 | 25 | – | – | – | – | – | –
Example IV: bovine hemoglobin modified with SC-PEG (MW 2000) at a molar ratio of 40:1 | < .1 EU | 20 | 83 | 432 | 129 | < 5 | 1.8 | 22 | 3.2 | 13.0 h | 18.0 | 20 | – | – | – | – | – | –
Example V: polymerized bovine hemoglobin modified first by BSC-PEG (MW 4600) 2:1, then SC-PEG (MW 5000) 10:1 | < .1 EU | – | 90 | 423 | 97 | 2 | 2.2 | 20 | 4.0 | 19 h and 18.8 h | 12.0 | – | free of endotoxins | 22 | 12 | – | – | –
Stroma-free hemoglobin: stroma-free hemoglobin, taken out of the red blood cell microenvironment | – | – | – | – | – | – | – | – | – | – | – | – | – | – | – | bind oxygen too tightly (a low P50) | about 100 minutes | –
U.S. Pat. No. 4,529,719: stroma-free hemoglobin cross-linked with a bis-diaspirin ester, reacted with pyridoxal phosphate | – | – | – | – | – | – | – | – | – | – | – | – | – | – | – | – | – | approximately 20 hours
